Columns and labels:
[1] = target: CP-capped actin filament barbed end (BC) (rabbit | not stated) (UniProt P68135); assay: microfluidics-assisted single-filament fluorescence microscopy (kinetics of elongation changes); set-up #1: formin-bound barbed ends (BF) exposed to CP + PA (BF+C→BFC), then PA alone (constants 'from BFC'); unlabelled formin; F-buffer pH 7.8, 50 mM KCl, room temperature
[2] = target: CP-capped actin filament barbed end (BC) (rabbit | not stated) (UniProt P68135); assay: microfluidics-assisted single-filament fluorescence microscopy (kinetics of elongation changes); set-up #1: CP-capped barbed ends (BC) exposed to formin without PA for T_(expo) (BC+F→BCF), then PA alone (constants 'from BCF'); k′+F from a fit, not measured directly; F-buffer pH 7.8, 50 mM KCl, room temperature
[3] = target: actin filament free barbed end (B) (rabbit) (UniProt P68135); assay: microfluidics-assisted single-filament fluorescence microscopy (kinetics of elongation changes); set-up #1: filaments from surface-anchored spectrin–actin seeds, free barbed ends exposed to flows of CP or formin with profilin-actin (1 μM actin, 4 μM profilin); off-rates in PA alone; F-buffer pH 7.8, 50 mM KCl, room temperature; KD from the rate constants
[4] = target: CP-capped actin filament barbed end (BC) (rabbit | not stated) (UniProt P68135); assay: microfluidics-assisted single-filament fluorescence microscopy (kinetics of elongation changes); set-up #2: biotin-SNAP-mDia1 anchored on neutravidin coverslip, insertional barbed-end assembly; exposed to CP + unlabelled PA, then PA alone; detachment = BFC→BC+F, resumed growth = BFC→BF+C; F-buffer pH 7.8, 50 mM KCl, room temperature

| Substance | Kd [1] [nM] | koff [1] [s⁻¹] | koff [2] [s⁻¹] | kon [2] [M⁻¹ s⁻¹] | kon [3] [M⁻¹ s⁻¹] | Kd [4] [nM] |
| --- | --- | --- | --- | --- | --- | --- |
| FH1–FH2–DAD domain of human formin mDia1 (unlabelled) (from UniProt O60610 583-1272) (domain or fragment) | 3 to 4 | 0.0042 | 0.0062 | 1.6e+06 | – | – |
| GST–FH1(8P)–FH2–C of formin FMNL2 (from UniProt Q96PY5-3 1-1092) (domain or fragment) | – | – | 0.0094 | 115000 | 1.54e+06 | – |
| biotinylated SNAP-mDia1(FH1–FH2–DAD)-His (from UniProt O60610 1-1272) (domain or fragment) | – | – | – | – | – | 4 |

Reference: publication PMC4660058
